Laboratory results as given in IntAct's records for PubMed 26245371.

What was measured:
epas1_mouse Epas1 = epas1_mouse Epas1 (UniProt P97481)
arnt_mouse Arnt [1] = target: arnt_mouse Arnt (UniProt P53762)
arnt_mouse Arnt [2] = target: arnt_mouse Arnt (UniProt P53762); remark: listed apart in the source

Hif1a, Q61221-1, sequence (Q61221 whole entry): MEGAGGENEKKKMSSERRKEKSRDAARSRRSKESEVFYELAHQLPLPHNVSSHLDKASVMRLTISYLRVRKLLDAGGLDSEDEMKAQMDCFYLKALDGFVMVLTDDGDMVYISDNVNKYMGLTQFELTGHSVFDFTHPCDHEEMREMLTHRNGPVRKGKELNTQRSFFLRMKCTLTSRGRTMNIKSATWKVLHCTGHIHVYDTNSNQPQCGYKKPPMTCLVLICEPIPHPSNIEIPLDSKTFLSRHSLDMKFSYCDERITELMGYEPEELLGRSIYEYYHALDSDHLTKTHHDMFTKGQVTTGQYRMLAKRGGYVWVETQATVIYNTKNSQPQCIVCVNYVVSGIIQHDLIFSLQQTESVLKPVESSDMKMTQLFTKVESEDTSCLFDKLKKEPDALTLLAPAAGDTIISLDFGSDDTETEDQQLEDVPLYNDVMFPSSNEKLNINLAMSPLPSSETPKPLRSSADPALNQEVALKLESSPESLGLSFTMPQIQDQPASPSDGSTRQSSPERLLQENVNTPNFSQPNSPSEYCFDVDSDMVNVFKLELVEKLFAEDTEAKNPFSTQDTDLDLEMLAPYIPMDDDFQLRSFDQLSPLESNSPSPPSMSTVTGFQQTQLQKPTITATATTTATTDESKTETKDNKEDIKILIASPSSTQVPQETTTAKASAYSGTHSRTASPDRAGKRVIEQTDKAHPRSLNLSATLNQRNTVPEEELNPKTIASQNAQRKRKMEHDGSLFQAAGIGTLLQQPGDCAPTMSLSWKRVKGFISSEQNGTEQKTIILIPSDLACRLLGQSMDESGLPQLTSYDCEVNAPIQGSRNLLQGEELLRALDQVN
Hypoxia-inducible factor 1-alpha (Mus musculus), Q61221-1 R170A;V191D, sequence (Q61221 whole entry R170A/V191D): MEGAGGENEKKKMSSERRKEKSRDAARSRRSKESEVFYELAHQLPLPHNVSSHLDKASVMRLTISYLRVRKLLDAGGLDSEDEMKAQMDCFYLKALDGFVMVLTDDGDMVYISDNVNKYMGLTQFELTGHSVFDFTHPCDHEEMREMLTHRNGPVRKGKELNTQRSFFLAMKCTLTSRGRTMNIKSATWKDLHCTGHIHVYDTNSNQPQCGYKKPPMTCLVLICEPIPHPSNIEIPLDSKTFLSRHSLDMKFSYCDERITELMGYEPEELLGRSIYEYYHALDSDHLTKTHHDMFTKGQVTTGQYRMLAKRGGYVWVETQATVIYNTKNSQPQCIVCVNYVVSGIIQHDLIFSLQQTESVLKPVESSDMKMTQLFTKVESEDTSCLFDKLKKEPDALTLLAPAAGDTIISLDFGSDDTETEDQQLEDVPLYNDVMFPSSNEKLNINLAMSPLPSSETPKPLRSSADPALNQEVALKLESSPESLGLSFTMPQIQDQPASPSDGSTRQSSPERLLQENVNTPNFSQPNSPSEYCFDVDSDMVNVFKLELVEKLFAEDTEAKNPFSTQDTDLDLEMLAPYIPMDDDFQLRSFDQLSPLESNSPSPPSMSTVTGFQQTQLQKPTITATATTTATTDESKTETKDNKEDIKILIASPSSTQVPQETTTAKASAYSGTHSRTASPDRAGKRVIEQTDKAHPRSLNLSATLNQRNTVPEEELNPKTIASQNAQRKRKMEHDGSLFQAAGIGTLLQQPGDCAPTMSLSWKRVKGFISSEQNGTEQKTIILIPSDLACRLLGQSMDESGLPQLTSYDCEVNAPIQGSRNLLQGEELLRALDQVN
Hypoxia-inducible factor 1-alpha (Mus musculus), Q61221-1 R170A, sequence (Q61221 whole entry R170A): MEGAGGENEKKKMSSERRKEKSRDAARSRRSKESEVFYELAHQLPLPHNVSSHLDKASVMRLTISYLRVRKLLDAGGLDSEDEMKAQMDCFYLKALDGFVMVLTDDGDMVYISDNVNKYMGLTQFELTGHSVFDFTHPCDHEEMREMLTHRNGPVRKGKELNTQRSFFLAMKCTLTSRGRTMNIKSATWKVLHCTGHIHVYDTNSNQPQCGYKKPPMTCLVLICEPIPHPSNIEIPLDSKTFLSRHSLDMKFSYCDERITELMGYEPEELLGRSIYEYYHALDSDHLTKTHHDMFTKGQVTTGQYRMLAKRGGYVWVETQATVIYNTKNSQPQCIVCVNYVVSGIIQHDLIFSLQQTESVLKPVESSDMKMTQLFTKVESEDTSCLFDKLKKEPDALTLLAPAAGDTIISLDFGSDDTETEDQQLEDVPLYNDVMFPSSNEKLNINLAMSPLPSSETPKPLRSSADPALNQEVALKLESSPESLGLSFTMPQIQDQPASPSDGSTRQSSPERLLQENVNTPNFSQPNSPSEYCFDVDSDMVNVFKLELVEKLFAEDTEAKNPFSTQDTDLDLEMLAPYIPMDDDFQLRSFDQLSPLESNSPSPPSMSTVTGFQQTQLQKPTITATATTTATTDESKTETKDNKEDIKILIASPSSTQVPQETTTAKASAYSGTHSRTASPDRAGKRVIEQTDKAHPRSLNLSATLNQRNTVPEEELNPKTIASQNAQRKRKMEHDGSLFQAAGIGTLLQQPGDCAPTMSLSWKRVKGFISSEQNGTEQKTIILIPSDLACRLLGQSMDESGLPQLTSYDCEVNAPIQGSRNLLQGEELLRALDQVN
Hypoxia-inducible factor 1-alpha (Mus musculus), Q61221-1 V191D, sequence (Q61221 whole entry V191D): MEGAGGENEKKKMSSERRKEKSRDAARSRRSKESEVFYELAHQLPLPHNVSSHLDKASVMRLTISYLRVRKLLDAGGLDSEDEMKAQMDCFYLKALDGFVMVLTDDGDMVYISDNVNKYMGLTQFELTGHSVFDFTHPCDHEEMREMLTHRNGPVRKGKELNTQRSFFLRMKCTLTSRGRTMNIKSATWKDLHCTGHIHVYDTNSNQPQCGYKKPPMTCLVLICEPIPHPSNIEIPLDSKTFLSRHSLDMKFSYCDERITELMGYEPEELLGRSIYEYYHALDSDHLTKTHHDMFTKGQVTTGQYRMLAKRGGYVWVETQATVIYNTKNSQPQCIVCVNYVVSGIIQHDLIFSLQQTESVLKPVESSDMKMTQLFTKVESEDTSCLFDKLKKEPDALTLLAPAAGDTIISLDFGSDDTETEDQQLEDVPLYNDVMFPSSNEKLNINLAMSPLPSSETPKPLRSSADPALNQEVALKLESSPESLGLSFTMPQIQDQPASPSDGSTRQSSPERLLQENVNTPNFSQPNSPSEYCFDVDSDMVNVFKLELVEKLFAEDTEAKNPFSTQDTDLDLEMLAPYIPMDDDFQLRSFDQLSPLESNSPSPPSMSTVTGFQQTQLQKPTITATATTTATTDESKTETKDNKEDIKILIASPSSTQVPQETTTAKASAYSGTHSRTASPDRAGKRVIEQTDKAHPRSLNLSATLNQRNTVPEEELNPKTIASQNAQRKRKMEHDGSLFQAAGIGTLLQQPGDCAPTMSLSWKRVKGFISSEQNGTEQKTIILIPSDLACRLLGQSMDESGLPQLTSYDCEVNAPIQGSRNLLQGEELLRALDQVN

Row | Substance | effect of a mutation on the interaction (epas1_mouse Epas1) | effect of a mutation on the interaction (Hif1a, Q61221-1) | effect of a mutation on the interaction (arnt_mouse Arnt [1]) | effect of a mutation on the interaction (arnt_mouse Arnt [2])
1 | Aryl hydrocarbon receptor nuclear translocator (Mus musculus), P53762 A171D | disrupting interaction strength | decreasing interaction strength |  | 
2 | Aryl hydrocarbon receptor nuclear translocator (Mus musculus), P53762 I168D | disrupting interaction strength | disrupting interaction strength |  | 
3 | Aryl hydrocarbon receptor nuclear translocator (Mus musculus), P53762 I264D | disrupting interaction strength | decreasing interaction strength |  | 
4 | Aryl hydrocarbon receptor nuclear translocator (Mus musculus), P53762 I264D;V305D | decreasing interaction strength | decreasing interaction strength |  | 
5 | Aryl hydrocarbon receptor nuclear translocator (Mus musculus), P53762 L112E | disrupting interaction strength | disrupting interaction strength |  | 
6 | Aryl hydrocarbon receptor nuclear translocator (Mus musculus), P53762 L112E;L132E | disrupting interaction strength | disrupting interaction strength |  | 
7 | Aryl hydrocarbon receptor nuclear translocator (Mus musculus), P53762 L132E | disrupting interaction strength | disrupting interaction strength |  | 
8 | Aryl hydrocarbon receptor nuclear translocator (Mus musculus), P53762 L167E | disrupting interaction strength | decreasing interaction strength |  | 
9 | Aryl hydrocarbon receptor nuclear translocator (Mus musculus), P53762 L167E;A171D | disrupting interaction strength | decreasing interaction strength |  | 
10 | Aryl hydrocarbon receptor nuclear translocator (Mus musculus), P53762 R266A | decreasing interaction strength |  |  | 
11 | Aryl hydrocarbon receptor nuclear translocator (Mus musculus), P53762 R366A | decreasing interaction strength | decreasing interaction strength |  | 
12 | Aryl hydrocarbon receptor nuclear translocator (Mus musculus), P53762 R366A;N448A | disrupting interaction strength | disrupting interaction strength |  | 
13 | Aryl hydrocarbon receptor nuclear translocator (Mus musculus), P53762 V136D | disrupting interaction strength | disrupting interaction strength |  | 
14 | Aryl hydrocarbon receptor nuclear translocator (Mus musculus), P53762 V305D | decreasing interaction strength | decreasing interaction strength |  | 
15 | Endothelial PAS domain-containing protein 1 (Mus musculus), P97481 F169D |  |  | decreasing interaction strength | 
16 | Endothelial PAS domain-containing protein 1 (Mus musculus), P97481 H194A |  |  | decreasing interaction strength | 
17 | Endothelial PAS domain-containing protein 1 (Mus musculus), P97481 R171A |  |  | decreasing interaction strength | 
18 | Endothelial PAS domain-containing protein 1 (Mus musculus), P97481 R171A;V192D |  |  | disrupting interaction strength | 
19 | Endothelial PAS domain-containing protein 1 (Mus musculus), P97481 V192D |  |  | decreasing interaction strength | 
20 | Hypoxia-inducible factor 1-alpha (Mus musculus), Q61221-1 R170A |  |  |  | decreasing interaction strength
21 | Hypoxia-inducible factor 1-alpha (Mus musculus), Q61221-1 R170A;V191D |  |  |  | decreasing interaction strength
22 | Hypoxia-inducible factor 1-alpha (Mus musculus), Q61221-1 V191D |  |  |  | decreasing interaction strength
